According to PMC11018115, “The EIN3 transcription factor GmEIL1 improves soybean resistance to Phytophthora sojae”:

T1: GmEIL1 (Glycine max (cv. Suinong 10), UniProt A0A0R4J4Z8 1-610)
T1 sequence: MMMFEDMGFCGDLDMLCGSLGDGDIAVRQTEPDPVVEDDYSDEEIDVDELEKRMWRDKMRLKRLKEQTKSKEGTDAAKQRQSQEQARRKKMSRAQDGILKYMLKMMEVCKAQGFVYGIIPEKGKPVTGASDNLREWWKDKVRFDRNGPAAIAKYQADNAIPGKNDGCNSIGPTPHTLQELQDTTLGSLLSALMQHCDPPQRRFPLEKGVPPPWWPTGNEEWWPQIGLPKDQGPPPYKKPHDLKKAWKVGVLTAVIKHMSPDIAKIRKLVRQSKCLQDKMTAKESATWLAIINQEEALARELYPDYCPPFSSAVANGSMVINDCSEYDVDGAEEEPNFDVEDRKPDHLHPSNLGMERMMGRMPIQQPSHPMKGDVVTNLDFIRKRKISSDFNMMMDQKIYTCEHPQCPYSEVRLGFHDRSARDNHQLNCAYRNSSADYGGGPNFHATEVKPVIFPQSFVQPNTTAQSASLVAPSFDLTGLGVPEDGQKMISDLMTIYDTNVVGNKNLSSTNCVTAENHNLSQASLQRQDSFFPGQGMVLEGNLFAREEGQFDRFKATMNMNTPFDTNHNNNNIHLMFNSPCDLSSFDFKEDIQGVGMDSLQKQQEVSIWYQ

B1: EBS probe (dsDNA)
DNA 1: GTTGTTTGGGATTCAAGGGGCATGTATCTTGAATCC
DNA 2: GGATTCAAGATACATGCCCCTTGAATCCCAAACAAC
B2: mEBS probe (dsDNA)
DNA 1: GTTGTTTGGGATTCAAGGGGCCCCCCTCTTGAATCC
DNA 2: GGATTCAAGAGGGGGGCCCCTTGAATCCCAAACAAC

Target: T1, GmEIL1
Test: EMSA; EMSA after Garner and Revzin (1981), chemiluminescent detection; buffer, salt, pH and temperature not stated
Conditions: protein: recombinant; chain copies: 2; label: digoxigenin-ddUTP (Methods, legend); text also says biotin

Row | Binder | binding result
1 | B1 | binds
2 | B2 | no binding
